Measurements: patent US20080199514A1 (BURNHAM INSTITUTE, published 2008)
Positions count from the first letter of the chain named.

B1: full length Hemagglutinin (HA) tagged LYP having R620 (protein)
chain: MDQREILQKFLDEAQSKKITKEEFANEFLKLKRQSTKYKADKTYPTTVAEKPKNIKKNRYKDILPYDYSRVELSLITSDEDSSYINANFIKGVYGPKAYIATQGPLSTTLLDFWRMIWEYSVLIIVMACMEYEMGKKKCERYWAEPGEMQLEFGPFSVSCEAEKRKSDYIIRTLKVKFNSETRTIYQFHYKNWPDHDVPSSIDPILELIWDVRCYQEDDSVPICIHCSAGCGRTGVICAIDYTWMLLKDGIIPENFSVFSLIREMRTQRPSLVQTQEQYELVYNAVLELFKRQMDVIRDKHSGTESQAKHCIPEKNHTLQADSYSPNLPKSTTKAAKMMNQQRTKMEIKESSSFDFRTSEISAKEELVLHPAKSSTSFDFLELNYSFDKNADTTMKWQTKAFPIVGEPLQKHQSLDLGSLLFEGCSNSKPVNAAGRYFNSKVPITRTKSTPFELIQQRETKEVDSKENFSYLESQPHDSCFVEMQAQKVMHVSSAELNYSLPYDSKHQIRNASNVKHHDSSALGVYSYIPLVENPYFSSWPPSGTSSKMSLDLPEKQDGTVFPSSLLPTSSTSLFSYYNSHDSLSLNSPTNISSLLNQESAVLATAPRIDDEIPPPLPVRTPESFIVVEEAGEFSPNVPKSLSSAVKVKIGTSLEWGGTSEPKKFDDSVILRPSKSVKLRSPKSELHQDRSSPPPPLPERTLESFFLADEDCMQAQSIETYSTSYPDTMENSTSSKQTLKTPGKSFTRSKSLKILRNMKKSICNSCPPNKPAESVQSNNSSSFLNFGFANRFSKPKGPRNPPPTWNI
B2: S-tagged LYP polypeptide corresponding to amino acid residues 603-710 with arginine at position 620 (other, human, UniProt Q9Y2R2 603-710, looked up)
chain: LATAPRIDDEIPPPLPVRTPESFIVVEEAGEFSPNVPKSLSSAVKVKIGTSLEWGGTSEPKKFDDSVILRPSKSVKLRSPKSELHQDRSSPPPPLPERTLESFFLADE
notes: Expressed in E. coli BL21; also called Construct 1; not shown: S-tag and other vector-derived residues from pET-30 (Novagen)
B3: S-tagged LYP polypeptide corresponding to amino acid residues 603-710 with tryptophan at position 620 (other, human, UniProt Q9Y2R2 603-710, looked up)
chain: B2 chain with R18W
notes: Expressed in E. coli BL21; also called Construct 2; not shown: S-tag and other vector-derived residues from pET-30 (Novagen)

Columns and labels:
[1] = molecular target: T1, Lck phosphopeptide (ARLIEDNEpYTAAREG)
T1 chain: ARLIEDNEYTAAREG

GST tag alone = molecular target: T2, GST tag alone (UniProt P08515 1-218 = GST); experiment: GST pull-down with glutathione-agarose from E. coli BL21 lysates, S-protein-HRP blot
T2 construct: Negative control of the pull-down; also called GST alone
T2 sequence (P08515 whole entry): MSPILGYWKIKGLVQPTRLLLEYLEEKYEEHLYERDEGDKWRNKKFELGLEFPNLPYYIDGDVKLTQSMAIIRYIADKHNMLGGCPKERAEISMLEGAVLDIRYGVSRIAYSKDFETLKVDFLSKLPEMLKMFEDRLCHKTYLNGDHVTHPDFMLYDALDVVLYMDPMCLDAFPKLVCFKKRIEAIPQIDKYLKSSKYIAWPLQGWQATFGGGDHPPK
Method: The s-tagged constructs were prepared using pET-30, (Novagen, San Diego, Calif. 92121), however, other vector systems can be used. […] The constructs were equally expressed using E. coli BL21. Either a GST-Tagged SH3 domain of Csk or a GST tag alone was co-expressed with the LYP fragment constructs. A glutathione-agarose bead was added to each of the BL21 lysates. Precipitated proteins were separated by gel-electrophoresis and transferred to a nitrocellulose filter. The filters were incubated with S-protein HRP and ECL reagent to allow for chemiluminescent detection of Csk bound LYP. […] None of the constructs precipitated when co-expressed with GST alone. In this example, bound material was detected using S-protein-horseradish peroxidase.

[2] = molecular target: T3, endogenous Csk from Jurkat T cells (UniProt P41240 2-450, limits assumed); experiment: S-tag pull-down from Jurkat T cell lysate, anti-Csk blot
T3 construct: mature; Native protein in the cell lysate
T3 sequence (P41240 2-450 limits assumed): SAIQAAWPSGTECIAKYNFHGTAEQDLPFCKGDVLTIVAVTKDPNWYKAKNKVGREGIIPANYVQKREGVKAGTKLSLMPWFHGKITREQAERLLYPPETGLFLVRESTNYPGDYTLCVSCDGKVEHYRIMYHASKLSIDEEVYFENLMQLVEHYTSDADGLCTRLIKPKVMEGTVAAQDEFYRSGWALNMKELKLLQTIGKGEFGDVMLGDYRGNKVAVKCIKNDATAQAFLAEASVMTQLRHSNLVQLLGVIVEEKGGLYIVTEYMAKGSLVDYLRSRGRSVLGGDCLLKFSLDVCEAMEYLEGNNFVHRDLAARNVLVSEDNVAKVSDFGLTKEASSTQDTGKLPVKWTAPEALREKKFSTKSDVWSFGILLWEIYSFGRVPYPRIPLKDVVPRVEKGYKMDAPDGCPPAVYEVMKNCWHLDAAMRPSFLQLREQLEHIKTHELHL
Method: Jurkat T cells, which endogenously express Csk, were lysed and the protein lysate was subjected to a pull down assay using S-tagged LYP either having R620 or having W620. A blot was performed and detection was carried out using an anti-Csk primary antibody in a two-stage detection system.

Binder	Dephosphorylation of an Lck phosphopeptide by immunoprecipitated HA-tagged LYP [1]	binding result (GST tag alone)	binding result [2]
B1	Immunoprecipitated LYP*R620 dephosphorylated 6.312±1.596 pmoles of substrate/min/106 transfected cells (n=5)		
B2		no binding	
B3		no binding	no binding
